What all share (details): both partners purified
Assay [1] concerns the target T1, human MYPN C-terminal region including three Ig domains (MYPN C-term; Res. 813-1320), N-terminal 6xHis-tag (human, UniProt Q86TC9-1 813-1320, NT-647 dye via NHS-driven amino coupling (only where it was the labelled partner, Figure 1C)).
T1 construct: Unlabelled in assay a3, labelled with NT-647 in assay a4; also called MYPN C-terminal fragment; MYPN C-terminal domain; source: E. coli BL21-CodonPlus (DE3)-RIPL, purified (HisTrap, Superdex 75 SEC)
T1 sequence (looked up): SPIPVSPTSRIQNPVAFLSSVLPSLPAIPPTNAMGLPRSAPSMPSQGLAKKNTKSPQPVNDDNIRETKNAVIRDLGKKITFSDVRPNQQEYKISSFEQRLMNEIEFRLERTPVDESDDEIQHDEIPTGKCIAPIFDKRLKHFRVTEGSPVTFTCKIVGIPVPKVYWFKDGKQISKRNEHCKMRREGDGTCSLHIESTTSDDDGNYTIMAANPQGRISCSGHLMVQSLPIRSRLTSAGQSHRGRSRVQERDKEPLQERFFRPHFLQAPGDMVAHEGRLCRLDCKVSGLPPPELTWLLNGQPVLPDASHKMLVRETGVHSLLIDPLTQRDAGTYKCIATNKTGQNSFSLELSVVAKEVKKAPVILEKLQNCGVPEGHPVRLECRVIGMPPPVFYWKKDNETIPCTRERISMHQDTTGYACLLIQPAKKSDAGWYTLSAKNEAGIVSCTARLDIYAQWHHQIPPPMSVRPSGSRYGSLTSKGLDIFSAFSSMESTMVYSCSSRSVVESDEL
Put plainly: MST; 400 nM NT-647-labelled MYPN C-term titrated with titin Ig Z4-Z5; 30 min at room temperature in 20 mM Tris-HCl pH 8, 150 mM NaCl, 5 mM EDTA, 4 mM DTT; Hill fit; full saturation reached; apparent.

In assay [2] the target is T1, human MYPN C-terminal region including …. Put plainly: MST; 450 nM NT-647-labelled titin Ig Z4-Z5 titrated with MYPN (up to 20 µM) or PALLD (up to 30 µM) C-term; 30 min at room temperature in 20 mM Tris-HCl pH 8, 150 mM NaCl, 5 mM EDTA, 4 mM DTT; Hill fit; saturation not reached, Kd could not be unequivocally determined; apparent.
Assay [3] addresses T2, PALLD C-terminal region (PALLD C-term; Res. 794-1123), N-terminal 6xHis-tag followed by a human rhinovirus 3C … (human, UniProt Q8WX93-9 794-1123).
T2 construct: numbers count on: NM_001166108.1; A 3C protease site follows the tag; also called homologous fragment of PALLD; PALLD C-terminal domain; source: E. coli BL21-CodonPlus (DE3)-RIPL, purified (HisTrap, Superdex 75 SEC)
T2 sequence (looked up): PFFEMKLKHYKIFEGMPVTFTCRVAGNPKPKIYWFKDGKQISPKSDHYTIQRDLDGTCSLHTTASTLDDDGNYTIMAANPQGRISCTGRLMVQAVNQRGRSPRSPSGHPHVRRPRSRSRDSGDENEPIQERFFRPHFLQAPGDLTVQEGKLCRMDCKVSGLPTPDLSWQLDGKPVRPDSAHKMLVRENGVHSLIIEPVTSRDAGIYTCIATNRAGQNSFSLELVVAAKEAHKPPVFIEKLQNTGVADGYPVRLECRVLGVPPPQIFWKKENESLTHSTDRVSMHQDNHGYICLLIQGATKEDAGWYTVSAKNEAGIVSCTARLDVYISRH
The assay is described as above.

B1: titin Ig domains Z4-Z5 (Res. 942-1173), N-terminal 6xHis-tag (domain or fragment, human, UniProt Q8WZ42-1 942-1173, looked up)
chain: PPTLVSGLKNVTVIEGESVTLECHISGYPSPTVTWYREDYQIESSIDFQITFQSGIARLMIREAFAEDSGRFTCSAVNEAGTVSTSCYLAVQVSEEFEKETTAVTEKFTTEEKRFVESRDVVMTDTSLTEEQAGPGEPAAPYFITKPVVQKLVEGGSVVFGCQVGGNPKPHVYWKKSGVPLTTGYRYKVSYNKQTGECKLVISMTFADDAGEYTIVVRNKHGETSASASLLE
modifications: NT-647 dye via NHS-driven amino coupling (only where it was the labelled partner, Figure 1B)
notes: titin, human, Ig domains Z4-Z5, residues 942-1173 of NM_001256850.1; Labelled with NT-647 in assay a3, unlabelled in assay a4; also called titin Ig domain Z4-Z5 peptide; titin Ig domain Z4-Z5 fragment; source: E. coli BL21-CodonPlus (DE3)-RIPL, purified (HisTrap, Superdex 75 SEC)
In the case of B1, the Kd in assay [1] came out at 2.8 ± 0.5 µM; in assay [2], 7.2 ± 2.6 µM; in assay [3] it was 6.1 ± 0.8 µM.

The record behind these values is article PMC8547954, “Myopalladin knockout mice develop cardiac dilation and show a maladaptive response to mechanical pressure overload” (eLife, 2021).
